In patent US20210238305A1 (REMEGEN, published 2021):

Molecular target: T1, human epidermal growth factor receptor 2 (Her2) (human, UniProt P04626 23-1255)
T1 construct: whole, on cells; Endogenous Her2 in fixed patient tissue; also called ErbB2
Assay: IHC grade, no antigen retrieval, breast carcinoma sample 5 (18-07814-1)

- binding result: binds
B1: RC48M antibody (antibody, mouse IgG1, kappa, V domains shown)
VH: EVQLVQSGAEVKKPGATVKISCKVSGYTFTDYYIHWVQQAPGKGLEWMGRVNPDHGDSYYNQKFKDKATITADKSTDTAYMELSSLRSEDTAVYFCARNYLFDHWGQGTLVTVSS
VL: DIQMTQSPSSVSASVGDRVTITCKASQDVGTAVAWYQQKPGKAPKLLIYWASIRHTGVPSRFSGSGSGTDFTLTISSLQPEDFATYYCHQFATYTFGGGTKVEIKR
notes: also called R48M
